Test system: CD34+
Assay: CD34+ proliferation assays
Format: cell-based
Details: proteins purified from plants
Procedure: The vectors were used to inoculate plant leaves of different sets of plants as described in the examples above. Both plant homogenates and interstitial fluid were extracted as described above. hSCF and pSCF were each purified from 27 plants to yield 0.85 mg (˜15 mg/kg) and 2.5 mg (˜45 mg/kg) of protein respectively.

B1: pSCF: porcine Stem Cell growth Factor expressed in plants from GENEWARE vector (protein)
chain: QGICRNRVTDDVKDVTKLVANLPKDYKITLKYVPGMDVLPSHCWISEMVEQLSVSLTDLLDKFSNISEGLSNYSIIDKLVKIVDDLVECMEEHSFENVKKSSKSPEPRLFTPEKFFGIFNRSIDAFKDLEMVAPKTSECVISSTLTPEKDSRVSVTKPFMLPPVAA
  biological activity in CD34+ proliferation assays: biologically active
